The supplement of paper PMC10899765
± gives the standard deviation of the averaged measurements.

These sequences were tested on MCF10A (assay: percent viability (nuclei count relative to siNT); higher = more viable cells). Details: 20 nM; 72 h.
Procedure: (§1)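 After 72 h, cells were fixed and stained with Hoechst and anti-fibrillarin, and nucleoli per nucleus were counted with CellProfiler. Values are plate-adjusted percent effect for the one-nucleolus and 5+ nucleoli phenotypes, normalised to siNT (0%) and to the positive controls siNOL11 or siKIF11 (100%), as the mean of biological triplicates. Percent viability is the nuclei count relative to siNT.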

Row | Sequence | percent viability [%]
1 | AACCCGUAGAUCCGAUCUUGUG [hsa-miR-99a-5p] | 48.2
2 | ACUGCAUUAUGAGCACUUAAAG [hsa-miR-20a-3p] | 138
3 | AGUUUUGCAGGUUUGCAUUUCA [hsa-miR-19b-2-5p] | 96.7
4 | CUCUAGAGGGAAGCGCUUUCUG [hsa-miR-519b-5p] | 36.9
5 | UCUGAGGUGGAACAGCAGC [hsa-miR-7162-3p] | 27.2
6 | AUUGGGAACAUUUUGCAUGUAU [hsa-miR-450a-1-3p] | 95
7 | AACUCGUGUUCAAAGCCUUUAG [hsa-miR-4636] | 53.6
8 | UAGGUGGCGCCGGAGGAGUCAUU [hsa-miR-6815-5p] | 13.2
9 | AAGUGCCCCCACAGUUUGAGUGC [hsa-miR-371b-3p] | 84.2
10 | CCCAGUGUUCAGACUACCUGUUC [hsa-miR-199a-5p] | 68.8
11 | ACCCAGGUUCCCUCUGGCCGCA [hsa-miR-4726-3p] | 23.9
12 | AGUUUUGCAUAGUUGCACUACA [hsa-miR-19a-5p] | 124
13 | UAUGGAGGUUCUAGACCAUGUU [hsa-miR-4802-5p] | 22.7
14 | AACUCUGACCCCUUAGGUUGAU [hsa-miR-4714-5p] | 41.1
15 | GGUGGGGCAAUGGGAUCAGGU [hsa-miR-3151] | 33.9
16 | AGCUGGUGUUGUGAAUCAGGCCG [hsa-miR-138-5p] | 21.6
17 | CAGCAGUCCCUCCCCCUG [hsa-miR-4274] | 34.1
18 | CCUGUUCUCCAUUACUUGGCUC [hsa-miR-26b-3p] | 63.1
19 | CCAGGCUCUGCAGUGGGAACU [hsa-miR-3155a] | 32.5
20 | UGUAAACAUCCUACACUCAGCU [hsa-miR-30b-5p] | 93
21 | ACGUUGGCUCUGGUGGUG [hsa-miR-1306-3p] | 18.4
22 | GUGUGACCACCGUUCCUGCAG [hsa-miR-6808-3p] | 27.3
23 | CCACCAGGUCUAGCAUUGGGAU [hsa-miR-4733-3p] | 29.8

Row | Sequence | percent viability [%]
24 | GGGGAGGUGUGCAGGGCUGG [hsa-miR-6799-5p] | 93.2
25 | AUGGGGACAGGGAUCAGCAUGGC [hsa-miR-6810-5p] | 25.9
26 | UGCGGGGCUAGGGCUAACAGCA [hsa-miR-744-5p] | 12
27 | UGAGUGUGUGUGUGUGAGUGUGU [hsa-miR-574-5p] | 42
28 | GAAGAACUGUUGCAUUUGCCCU [hsa-miR-4511] | 121
29 | AGGCCAUCAGCAGUCCAAUGAA [hsa-miR-4529-5p] | 52.1
30 | AGGCACGGUGUCAGCAGGC [hsa-miR-564] | 67.8
31 | UAGCAGCACGUAAAUAUUGGCG [hsa-miR-16-5p] | 15.8
32 | AGCGAGGUUGCCCUUUGUAUAU [hsa-miR-381-5p] | 52.5
33 | CUGCAAAGGGAAGCCCUUUC [hsa-miR-518a-5p] | 32.4
34 | UGGGCUGAGGGCAGGAGGCCUGU [hsa-miR-4656] | 9.2
35 | AGUGGAUGAUGGAGACUCGGUAC [hsa-miR-3691-5p] | 13.1
36 | GGUGAGGCUAGCUGGUG [hsa-miR-4316] | 41.7
37 | UACCACAGGGUAGAACCACGG [hsa-miR-140-3p] | 118
38 | CAGCAGCAAUUCAUGUUUUGAA [hsa-miR-424-5p] | 77.3
39 | ACUGGCAUUAGUGGGACUUUU [hsa-miR-5588-5p] | 46.1
40 | ACCAUCGACCGUUGAUUGUACC [hsa-miR-181a-3p] | 87.3
41 | AUUGGGGACAUUUUGCAUUCAU [hsa-miR-450a-3p] | 31.6 ± 3.4
42 | UCCCUGAGCAAAGCCAC [hsa-miR-4319] | 59.9
43 | UUAUUGCUUAAGAAUACGCGUAG [hsa-miR-137] | 114
44 | GCGAGGACCCCUCGGGGUCUGAC [hsa-miR-611] | 121
45 | AGACACUAUACGAGUCAUAU [hsa-miR-3117-5p] | 120

What follows are sequences tested on MCF10A (assay: 5+ nucleoli phenotype percent effect (relative to siNT 0% and siKIF11 100%); higher = more cells with five or more nucleoli). Details: 20 nM; 72 h.
Procedure: as §1

Row | Sequence | 5+ nucleoli phenotype percent effect [%]
46 | AACCCGUAGAUCCGAUCUUGUG [hsa-miR-99a-5p] | 1.63
47 | ACUGCAUUAUGAGCACUUAAAG [hsa-miR-20a-3p] | 43.3
48 | AGUUUUGCAGGUUUGCAUUUCA [hsa-miR-19b-2-5p] | -10.8
49 | CUCUAGAGGGAAGCGCUUUCUG [hsa-miR-519b-5p] | -5.59
50 | UCUGAGGUGGAACAGCAGC [hsa-miR-7162-3p] | -23
51 | AUUGGGAACAUUUUGCAUGUAU [hsa-miR-450a-1-3p] | 24.1
52 | AACUCGUGUUCAAAGCCUUUAG [hsa-miR-4636] | 12.8
53 | UAGGUGGCGCCGGAGGAGUCAUU [hsa-miR-6815-5p] | -6.84
54 | AAGUGCCCCCACAGUUUGAGUGC [hsa-miR-371b-3p] | 68.5
55 | CCCAGUGUUCAGACUACCUGUUC [hsa-miR-199a-5p] | -30.3
56 | ACCCAGGUUCCCUCUGGCCGCA [hsa-miR-4726-3p] | -34.6
57 | AGUUUUGCAUAGUUGCACUACA [hsa-miR-19a-5p] | 35.3
58 | UAUGGAGGUUCUAGACCAUGUU [hsa-miR-4802-5p] | 7.79
59 | AACUCUGACCCCUUAGGUUGAU [hsa-miR-4714-5p] | -16.1
60 | GGUGGGGCAAUGGGAUCAGGU [hsa-miR-3151] | 9.32
61 | AGCUGGUGUUGUGAAUCAGGCCG [hsa-miR-138-5p] | -24.6
62 | CAGCAGUCCCUCCCCCUG [hsa-miR-4274] | 7.99
63 | CCUGUUCUCCAUUACUUGGCUC [hsa-miR-26b-3p] | -23.3
64 | CCAGGCUCUGCAGUGGGAACU [hsa-miR-3155a] | 30.4
65 | UGUAAACAUCCUACACUCAGCU [hsa-miR-30b-5p] | 34.3
66 | ACGUUGGCUCUGGUGGUG [hsa-miR-1306-3p] | -4.59
67 | GUGUGACCACCGUUCCUGCAG [hsa-miR-6808-3p] | -25.4
68 | CCACCAGGUCUAGCAUUGGGAU [hsa-miR-4733-3p] | -9.32

Row | Sequence | 5+ nucleoli phenotype percent effect [%]
69 | GGGGAGGUGUGCAGGGCUGG [hsa-miR-6799-5p] | 37
70 | AUGGGGACAGGGAUCAGCAUGGC [hsa-miR-6810-5p] | -23.9
71 | UGCGGGGCUAGGGCUAACAGCA [hsa-miR-744-5p] | -35.1
72 | UGAGUGUGUGUGUGUGAGUGUGU [hsa-miR-574-5p] | -4.79
73 | GAAGAACUGUUGCAUUUGCCCU [hsa-miR-4511] | 26.2
74 | AGGCCAUCAGCAGUCCAAUGAA [hsa-miR-4529-5p] | 9.36
75 | AGGCACGGUGUCAGCAGGC [hsa-miR-564] | -12.9
76 | UAGCAGCACGUAAAUAUUGGCG [hsa-miR-16-5p] | -19.3
77 | AGCGAGGUUGCCCUUUGUAUAU [hsa-miR-381-5p] | 0.715
78 | CUGCAAAGGGAAGCCCUUUC [hsa-miR-518a-5p] | -45.8
79 | UGGGCUGAGGGCAGGAGGCCUGU [hsa-miR-4656] | 20.8
80 | AGUGGAUGAUGGAGACUCGGUAC [hsa-miR-3691-5p] | -12.7
81 | GGUGAGGCUAGCUGGUG [hsa-miR-4316] | -8.12
82 | UACCACAGGGUAGAACCACGG [hsa-miR-140-3p] | 47.1
83 | CAGCAGCAAUUCAUGUUUUGAA [hsa-miR-424-5p] | -8.58
84 | ACUGGCAUUAGUGGGACUUUU [hsa-miR-5588-5p] | 33.4
85 | ACCAUCGACCGUUGAUUGUACC [hsa-miR-181a-3p] | 21.1
86 | AUUGGGGACAUUUUGCAUUCAU [hsa-miR-450a-3p] | -17.5 ± 0.61
87 | UCCCUGAGCAAAGCCAC [hsa-miR-4319] | 9.87
88 | UUAUUGCUUAAGAAUACGCGUAG [hsa-miR-137] | -22.6
89 | GCGAGGACCCCUCGGGGUCUGAC [hsa-miR-611] | 45.7
90 | AGACACUAUACGAGUCAUAU [hsa-miR-3117-5p] | 12.6

The sequences below were run on MCF10A (assay: one-nucleolus phenotype percent effect (relative to siNT 0% and siNOL11 100%); higher = more cells with one nucleolus (ribosome biogenesis inhibition)). Details: 20 nM; 72 h.
Procedure: as §1

Row | Sequence | one-nucleolus phenotype percent effect [%]
91 | AACCCGUAGAUCCGAUCUUGUG [hsa-miR-99a-5p] | 7.7
92 | ACUGCAUUAUGAGCACUUAAAG [hsa-miR-20a-3p] | -23.3
93 | AGUUUUGCAGGUUUGCAUUUCA [hsa-miR-19b-2-5p] | 21.2
94 | CUCUAGAGGGAAGCGCUUUCUG [hsa-miR-519b-5p] | 5.75
95 | UCUGAGGUGGAACAGCAGC [hsa-miR-7162-3p] | 19.5
96 | AUUGGGAACAUUUUGCAUGUAU [hsa-miR-450a-1-3p] | -29.7
97 | AACUCGUGUUCAAAGCCUUUAG [hsa-miR-4636] | 8.89
98 | UAGGUGGCGCCGGAGGAGUCAUU [hsa-miR-6815-5p] | 20.3
99 | AAGUGCCCCCACAGUUUGAGUGC [hsa-miR-371b-3p] | -25.4
100 | CCCAGUGUUCAGACUACCUGUUC [hsa-miR-199a-5p] | 4.51
101 | ACCCAGGUUCCCUCUGGCCGCA [hsa-miR-4726-3p] | 51.3
102 | AGUUUUGCAUAGUUGCACUACA [hsa-miR-19a-5p] | -20
103 | UAUGGAGGUUCUAGACCAUGUU [hsa-miR-4802-5p] | 26.9
104 | AACUCUGACCCCUUAGGUUGAU [hsa-miR-4714-5p] | -5.26
105 | GGUGGGGCAAUGGGAUCAGGU [hsa-miR-3151] | -3.87
106 | AGCUGGUGUUGUGAAUCAGGCCG [hsa-miR-138-5p] | 13.5
107 | CAGCAGUCCCUCCCCCUG [hsa-miR-4274] | 6.47
108 | CCUGUUCUCCAUUACUUGGCUC [hsa-miR-26b-3p] | 7.43
109 | CCAGGCUCUGCAGUGGGAACU [hsa-miR-3155a] | -2.13
110 | UGUAAACAUCCUACACUCAGCU [hsa-miR-30b-5p] | -9.57
111 | ACGUUGGCUCUGGUGGUG [hsa-miR-1306-3p] | 38.2
112 | GUGUGACCACCGUUCCUGCAG [hsa-miR-6808-3p] | 28.3
113 | CCACCAGGUCUAGCAUUGGGAU [hsa-miR-4733-3p] | 12.6

Row | Sequence | one-nucleolus phenotype percent effect [%]
114 | GGGGAGGUGUGCAGGGCUGG [hsa-miR-6799-5p] | -29.7
115 | AUGGGGACAGGGAUCAGCAUGGC [hsa-miR-6810-5p] | 45.5
116 | UGCGGGGCUAGGGCUAACAGCA [hsa-miR-744-5p] | 53.9
117 | UGAGUGUGUGUGUGUGAGUGUGU [hsa-miR-574-5p] | 3.74
118 | GAAGAACUGUUGCAUUUGCCCU [hsa-miR-4511] | -30.8
119 | AGGCCAUCAGCAGUCCAAUGAA [hsa-miR-4529-5p] | 2.62
120 | AGGCACGGUGUCAGCAGGC [hsa-miR-564] | 11.4
121 | UAGCAGCACGUAAAUAUUGGCG [hsa-miR-16-5p] | 27.2
122 | AGCGAGGUUGCCCUUUGUAUAU [hsa-miR-381-5p] | -12.7
123 | CUGCAAAGGGAAGCCCUUUC [hsa-miR-518a-5p] | 60.3
124 | UGGGCUGAGGGCAGGAGGCCUGU [hsa-miR-4656] | 22.2
125 | AGUGGAUGAUGGAGACUCGGUAC [hsa-miR-3691-5p] | 34.9
126 | GGUGAGGCUAGCUGGUG [hsa-miR-4316] | 13.5
127 | UACCACAGGGUAGAACCACGG [hsa-miR-140-3p] | -23.5
128 | CAGCAGCAAUUCAUGUUUUGAA [hsa-miR-424-5p] | 24
129 | ACUGGCAUUAGUGGGACUUUU [hsa-miR-5588-5p] | -3.93
130 | ACCAUCGACCGUUGAUUGUACC [hsa-miR-181a-3p] | -7.58
131 | AUUGGGGACAUUUUGCAUUCAU [hsa-miR-450a-3p] | 7.56 ± 4.4
132 | UCCCUGAGCAAAGCCAC [hsa-miR-4319] | -1.9
133 | UUAUUGCUUAAGAAUACGCGUAG [hsa-miR-137] | 47.7
134 | GCGAGGACCCCUCGGGGUCUGAC [hsa-miR-611] | -31.1
135 | AGACACUAUACGAGUCAUAU [hsa-miR-3117-5p] | 0.975
